Results on one molecule are retold here after patent publication US20220073616A1 (Merck KGaA, published 2022).

Assay [1] deals with T1, T Cell Immunoglobulin and Mucin Domain-3 (TIM-3) on human blood cells (human, UniProt Q8TDQ0 22-301).
T1 construct: whole, on cells; also called TIM-3 on CD14+ monocytes; HAVCR2
Put plainly: Flow cytometry on human whole blood, target occupancy on CD14+ monocytes, donor KP46315. Unoccupied TIM-3 was detected with the competing anti-TIM-3 (2E2)-APC.

The target in assay [2] is T1, T Cell Immunoglobulin and Mucin …. Put plainly: Flow cytometry on human whole blood, target occupancy on CD14+ monocytes, donor KP46231. Unoccupied TIM-3 was detected with the competing anti-TIM-3 (2E2)-APC. A general note: A flow cytometer gives signals particle by particle.
Assay [3] concerns the target T2, wild-type human TIM-3 (hu TIM-3) (human, UniProt Q8TDQ0 22-200, limits assumed).
T2 construct: Soluble protein used for SPR; also called wild-type TIM-3
In words: SPR (Biacore 4000), antibody captured via anti-human Fc. In general terms: In SPR one partner is held on a chip, and binding of the other changes the refractive index at the surface.

Assay [4] deals with T2, wild-type human TIM-3 (hu TIM-3). The assay is described as above. The source holds these as a separate data set.
The target of the next assay is T3, rhTIM-3-Fc AF647 (human, UniProt Q8TDQ0 22-200, AF647 label).
T3 construct: also called rhTIM-3 AF647; not shown: Fc part
Put plainly: flow cytometry; M6903 pre-incubated with rhTIM-3-Fc AF647, inhibition of its binding to PtdSer on apoptotic Jurkat cells.

The target in assay [5] is T1, T Cell Immunoglobulin and Mucin …. Put plainly: flow cytometry, target occupancy on CD14+ monocytes in human whole blood; unoccupied TIM-3 detected with the competing anti-TIM-3(2E2)-APC; average of 10 donors.
Assay [6] shares this target. Put plainly: Flow cytometry on human whole blood, target occupancy on CD14+ monocytes, donor KP46318 (assigned by elimination of the other line styles). Unoccupied TIM-3 was detected with the competing anti-TIM-3 (2E2)-APC.

Read-outs that look alike come from different tables or passages of the source.

B1: M6903 (anti-TIM3-3903E11(VL1.3,VH1.2)-IgG2h(FN-AQ,322A)-delK) (antibody, V domains shown)
VH: not shown
VL: QSALTQPRSVSGSPGQSVTISCTGTSSDVGGYNYVSWYQQHPGKAPKLMIYDVSKRPSGVPDRFSGSKSGNTASLTISGLQAEDEADYYCSSYADSVVFGGGTKVTVLG
notes: Anti-TIM-3 (A16-019-1), used in the target occupancy assay, is said to be identical to M6903 but produced in Expi293F instead of CHOK1SV cells; it is kept under this molecule; also called 3903E11 (VL1.3,VH1.2)-IgG2h(FN-AQ,322A)-delK antibody; anti-TIM-3 (A16-019-1)
For the molecule B1, the “EC50 (read off the curve)” value in assay [1], in assay [2] and in assay [6] was ~0.07 µg/mL throughout. Further, the Kd came to 5.7 nM in assay [3] and 6.2 nM in assay [4]. The IC50 with rhTIM-3-Fc AF647 was found to be 4.44 nM. Also, in assay [5], the midpoint of the response, the EC50, lay at 0.111 µg/mL.

By EC50 (read off the curve) is commonly meant the concentration giving half of the maximal effect. A high value points to a need for much substance. A word on the Kd: it is the constant that tells how readily two partners part at equilibrium. A higher Kd goes with weaker binding. What is called IC50 is the concentration at which inhibition is half-maximal. Higher therefore signals weaker potency. A word on the EC50: it is the concentration giving half of the maximal effect.
